Test results taken from PMC7954794, “Protein context shapes the specificity of SH3 domain-mediated interactions in vivo” (Nature Communications, 2021).

What was measured:
Type in all cases: cell-based, Saccharomyces cerevisiae
BEM1-1 = assay: DHFR-PCA on solid medium, bait BEM1-1 (Fig. 1B); conditions: bait BEM1-1, label = prey
Excerpt: (§1) Supplement 41467_2021_21873_MOESM8_ESM.xlsx, sheet "Fig1B" | column: medsize; medrep; Ratio; Score

BEM1-2 = assay: DHFR-PCA on solid medium, bait BEM1-2 (Fig. 1B); conditions: bait BEM1-2, label = prey
Excerpt: as §1

ABP1 = assay: DHFR-PCA on solid medium, bait ABP1 (Fig. 1B); conditions: bait ABP1, label = prey
Excerpt: as §1

[1] = only significant differences showed, PPIs completely lost have a ratio of 0.1 and the gained PPIs 2.5

B1: YPR055W (protein, UniProt P32855 1-1065, looked up)
Exocyst complex component SEC8: MDYLKPAQKGRRRGLSINSLSETQQSAMNSSLDHLQNDLNRINLQWNRILSDNTNPLELALAFLDDTSVGLGHRYEEFNQLKSQIGSHLQDVVNEHSQVFNTNVASYGKAVSSIMQAQEQTLNLKNCLKEANEKITTDKGSLQELNDNNLKYTKMIDVLVNIEELLQIPEKIEENIRKENFHQVQILLERGFILMNNKSLKTVEILKPINQQLELQEHLLFNNLIEEIHDIMYSKSNKTNFTRVTNNDIFKIISISHNGFTSLENYLYNIVNIDIMEHSKTINKNLEQFIHDQSLNKGNIMLQENAATQAPLAPSRNQENEGFNRIGFLLKTINNINKLPVAFNIITERAKEEIHNIIVKSTESIRSKHPSLLKMATSLKNDNHFGLPVQDILSIILRECFWEIFLKLLYAIQCHRAIFEMSNILQPTSSAKPAFKFNKIWGKLLDEIELLLVRYINDPELISSNNGSIKPINGATNNAPTLPKRKNPKIFSLEYNIEDNSSVKDQAFELKALLKDIFPGFSVSSNMDLDSIYVKDESFEQDEPLVPPSVFNMKVILDPFLLFTQSTSTIVPSVLTQNTISSLTFFDDYMNKSFLPKIQMTMDYLFTVEVESNNPYALELSDENHNIFKTALDFQRLFYNLLNVFNTANTFREKISYCILDLLNHFYNYYLGLFNSLIGTSDRHLTRKIITAWLQNGILMDQEQKILNGDETLFHEESIELFKEIPHFYQAGKGLSKSDLFNNLTLDTILQFSASVLWILNWLPGLKKAINIDEVSQEPMLDADRLRSSWTFSESMDLNYSNPSSSPNSLGNLKILLDDKASKKFDETIDGFKTLKFKLITILRFNIRALCIYDIGSFFQNTKIWNMDVGSIELDQNIASLISELRRTESKLKQQLPEKEKNSIFIGLDIVNNYALIKGAKSIKVLNHNGIKKMLRNVNVLQHAYRNLSSEPSKINMNVTMNFYSLCGSSEAELFEYIKDNELPHCSVEDLKTILRLQFSEEMHRQLKRQSTSSTKGSIKPSNKRYTEALEKLSNLEKEQSKEGARTKIGKLKSKLNAVHTANEK
With B1 the “medrep (log2 median colony size normalized to plate background, PCA score)” value (BEM1-1; 2-8 replicates) was 1.322, the “Ratio (SH3-deleted/WT medrep)” value (BEM1-1; [1]) was 0.1 and the “medrep (log2 median colony size normalized to plate background, PCA score)” value (BEM1-2; 2-8 replicates) was 1.322. The “Ratio (SH3-deleted/WT medrep)” value (BEM1-2; [1]) was 0.1, the “medrep (log2 median colony size normalized to plate background, PCA score)” value (ABP1; 2-4 replicates) was 1.475 and the “Ratio (SH3-deleted/WT medrep)” value (ABP1; [1]) was 0.1.
